Assays:
[1] = biological target: High mobility group box 1 (UniProt P09429)
[2] = biological target: Thrombomodulin (recombinant) (UniProt P07204)
Thrombomodulin (recombinant), sequence (P07204 whole entry, looked up): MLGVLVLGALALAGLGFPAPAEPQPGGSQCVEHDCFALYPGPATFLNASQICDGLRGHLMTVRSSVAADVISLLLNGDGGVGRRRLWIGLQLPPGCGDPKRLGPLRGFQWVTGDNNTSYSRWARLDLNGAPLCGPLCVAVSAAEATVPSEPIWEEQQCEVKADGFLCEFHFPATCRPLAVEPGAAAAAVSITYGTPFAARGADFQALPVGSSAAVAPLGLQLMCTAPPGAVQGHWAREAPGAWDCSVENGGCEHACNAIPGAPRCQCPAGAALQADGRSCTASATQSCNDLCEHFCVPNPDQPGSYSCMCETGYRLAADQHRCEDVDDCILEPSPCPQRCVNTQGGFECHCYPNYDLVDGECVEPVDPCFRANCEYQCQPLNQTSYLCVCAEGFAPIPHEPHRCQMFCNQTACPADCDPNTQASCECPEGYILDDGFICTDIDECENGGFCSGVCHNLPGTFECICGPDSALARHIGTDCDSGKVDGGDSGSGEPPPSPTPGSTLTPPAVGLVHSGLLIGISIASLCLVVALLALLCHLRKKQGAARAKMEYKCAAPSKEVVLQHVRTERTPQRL

High mobility group box 1, sequence (P09429 whole entry): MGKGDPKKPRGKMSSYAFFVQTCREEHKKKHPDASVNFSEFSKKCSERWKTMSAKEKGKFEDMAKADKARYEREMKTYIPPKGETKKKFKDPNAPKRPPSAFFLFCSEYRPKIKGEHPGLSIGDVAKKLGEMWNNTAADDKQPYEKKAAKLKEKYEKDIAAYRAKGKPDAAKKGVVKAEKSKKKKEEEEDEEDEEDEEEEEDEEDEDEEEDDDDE

Activated protein C
proteolytic degradation of HMGB1 by 100 nM APC, with or without soluble EPCR and/or PC/PS/PE vesicles, 2 hours at 37 C [1]: APC had no direct proteolytic effect on HMGB1 ... did not lead to the degradation of HMGB1 even after 2 hours incubation at 37 °C (data not shown)

PCgla/meizothrombin (meizothrombin with its Gla-domain replaced by that of protein C; Factor Xa-activated PCgla/prothrombin-3A)
proteolytic cleavage of HMGB1 (400 nmol/L) by 2 nM protease, SDS-PAGE and immunoblot [1]: PCgla/MeizoTh can proteolytically cleave HMGB1 | acceleration of HMGB1 cleavage by 2 nM PCgla/MeizoTh with 400 nmol/L recombinant TM, SDS-PAGE and immunoblot [2]: TM can function as a cofactor to markedly accelerate the cleavage reaction
